This is an account of results in patent US20170152300A1 (CSL, published 2017).

Experiment [1] deals with recombinant Factor VIII (as described in Zollner et al 2013) (Homo sapiens (Human)) (UniProt P00451). Nature of the experiment: SPR, anti-His capture. (In SPR one partner is held on a chip, and binding of the other changes the refractive index at the surface.)
Experiment [2] has as its target T1, recombinant Factor VIII (as described in Zollner et al 2013) (Homo sapiens (Human), UniProt P00451 20-2351).
T1 construct: also called FVIII
T1 sequence: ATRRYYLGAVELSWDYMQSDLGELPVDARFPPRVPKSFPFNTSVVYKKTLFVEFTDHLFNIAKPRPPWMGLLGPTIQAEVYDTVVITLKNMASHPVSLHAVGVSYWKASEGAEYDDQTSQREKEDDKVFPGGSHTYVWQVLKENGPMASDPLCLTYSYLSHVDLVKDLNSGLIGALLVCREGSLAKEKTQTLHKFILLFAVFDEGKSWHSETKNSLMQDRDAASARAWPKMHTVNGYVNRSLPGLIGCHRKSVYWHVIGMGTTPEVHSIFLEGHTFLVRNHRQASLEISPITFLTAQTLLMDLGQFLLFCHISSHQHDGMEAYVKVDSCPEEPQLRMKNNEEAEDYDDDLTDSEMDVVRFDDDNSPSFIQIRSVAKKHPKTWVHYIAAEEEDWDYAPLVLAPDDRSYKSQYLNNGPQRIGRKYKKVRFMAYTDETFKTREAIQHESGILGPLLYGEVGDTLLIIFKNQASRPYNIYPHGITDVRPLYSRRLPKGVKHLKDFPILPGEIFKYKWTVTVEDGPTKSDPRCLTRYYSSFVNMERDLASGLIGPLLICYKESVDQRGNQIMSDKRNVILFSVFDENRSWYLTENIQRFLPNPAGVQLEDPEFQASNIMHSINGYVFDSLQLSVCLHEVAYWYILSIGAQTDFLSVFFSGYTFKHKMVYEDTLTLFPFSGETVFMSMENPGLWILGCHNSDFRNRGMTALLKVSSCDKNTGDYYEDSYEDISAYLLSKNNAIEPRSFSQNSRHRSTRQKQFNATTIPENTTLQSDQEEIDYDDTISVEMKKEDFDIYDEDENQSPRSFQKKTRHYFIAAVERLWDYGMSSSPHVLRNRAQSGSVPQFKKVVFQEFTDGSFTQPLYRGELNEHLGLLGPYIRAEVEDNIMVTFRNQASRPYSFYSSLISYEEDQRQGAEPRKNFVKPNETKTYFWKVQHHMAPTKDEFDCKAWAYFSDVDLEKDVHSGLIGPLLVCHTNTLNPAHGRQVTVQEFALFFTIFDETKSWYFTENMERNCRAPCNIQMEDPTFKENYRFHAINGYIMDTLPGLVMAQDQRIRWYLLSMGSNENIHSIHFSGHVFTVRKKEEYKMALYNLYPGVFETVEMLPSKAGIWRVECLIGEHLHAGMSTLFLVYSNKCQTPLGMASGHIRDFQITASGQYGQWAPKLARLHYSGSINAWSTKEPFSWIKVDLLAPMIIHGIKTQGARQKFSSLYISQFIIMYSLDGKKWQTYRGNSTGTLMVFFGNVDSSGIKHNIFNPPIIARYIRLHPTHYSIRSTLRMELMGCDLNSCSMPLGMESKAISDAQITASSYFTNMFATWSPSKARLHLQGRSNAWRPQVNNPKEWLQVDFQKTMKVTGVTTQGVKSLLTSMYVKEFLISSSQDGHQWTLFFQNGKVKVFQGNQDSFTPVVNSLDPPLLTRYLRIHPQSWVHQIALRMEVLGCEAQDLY
Nature of the experiment: SPR, anti-His capture. Here is the method: Binding kinetics were investigated by surface plasmon resonance using a Biacore 4000 biosensor at 37° C. Each mutant was captured from cell culture medium to a density of 40-150RU on a CM-5 sensor chip pre-immobilised with anti-His antibody (14,000 RU). In an initial screening study, FVIII was injected over the captured mutants for 5 minutes at 1 nM and dissociation monitored for 5 minutes.
All sensorgrams were double referenced by subtraction of signals from a reference spot (containing only immobilised anti His antibody) and from a blank injection. Binding kinetics were determined by fitting the double referenced sensorgrams to a 1:1 kinetic model.

Where “and” joins values, the source holds several entries; their conditions need not be identical. Identical values can stand only once.

One may read the Kd as the constant that tells how readily two partners part at equilibrium. For orientation: koff means the first-order rate constant of dissociation. As usually defined, the kon is the rate constant with which the complex forms. “Hu-vWF[764-1270]-8His dupS764/S764P/S766I”: in experiment [1], the Kd is 0.255 nM and 0.199 nM; the koff was 0.00159 s⁻¹ and 0.0025 s⁻¹; the kon was 6.23e+06 M⁻¹ s⁻¹ and 1.25e+07 M⁻¹ s⁻¹.

B1: Hu-vWF[764-1270]-8His S764P-S766I (other)
chain: PLICRPPMVKLVCPADNLRAEGLECTKTCQNYDLECMSMGCVSGCLCPPGMVRHENRCVALERCPCFHQGKEYAPGETVKIGCNTCVCRDRKWNCTDHVCDATCSTIGMAHYLTFDGLKYLFPGECQYVLVQDYCGSNPGTFRILVGNKGCSHPSVKCKKRVTILVEGGEIELFDGEVNVKRPMKDETHFEVVESGRYIILLLGKALSVVWDRHLSISVVLKQTYQEKVCGLCGNFDGIQNNDLTSSNLQVEEDPVDFGNSWKVSSQCADTRKVPLDSSPATCHNNIMKQTMVDSSCRILTSDVFQDCNKLVDPEPYLDVCIYDTCSCESIGDCACFCDTIAAYAHVCAQHGKVVTWRTATLCPQSCEERNLRENGYECEWRYNSCAPACQVTCQHPEPLACPVQCVEGCHAHCPPGKILDELLQTCVDPEDCPVCEVAGRRFASGKKVTLNPSDPEHCQICHCDVVNLTCEACQEPGGLVVPPTDAPVSPTTLYVEDISEPPLHDFHHHHHHHH
With B1, in experiment [2], the “fold decrease in off-rate vs wild type” value amounted to 22 fold and the “fold increase in affinity vs wild type” value was 30 fold.
